# Experiment: yeast display, Sf9 membrane polyspecificity reagent, FACS + sequencing; frameworks hold sequencing errors
# Outline: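 Using colony PCR, genes from sorted yeast display clones were amplified, then sequenced on MiSeq at 2 × 250 and filtered by CDR length. The clones had been stained with 10% biotinylated, detergent-solubilized Sf9 membrane reagent for 1 hour at 4 °C and sorted by FACS into low and high (top ~1%) gates on anti-HA and streptavidin fluorescence. Polyreactivity labels come from the gate of origin.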
row,Sequence,polyreactivity (PSR sort gate)
1,QVQLVESGGGLVQAGGSLRLSCAASGRTFNGNTMGWYRQAPGKERQLVAAISRNGGRTYYADSVKGRFTISRDNAKNTVYLQMNSLKPEDTAVYYCATVYRPGGVYGYWGQGTQVTVSS,high polyreactivity
2,QVQLVDSGGGLVQAGGGLRLSCAASGRIFVKYGMGWYRQAPGKERELVAAISWTGGSTYYADSVKGRFTISRDNEKNTVYLQMNSLKPEDTAVYYCAKSFGIWHARWLTYDYWGQGTQVTVSS,low polyreactivity
3,QVQLVESGGGLVQAGGSLRLSCAASGFTFGHYAMGWYRQAPGKERELVAAISIDGGRTYYADSVKGRFTISRDNAKNTVYLQMNSLKPEDTAVYYCAVPRWVYYTSDYDYWGQGTQVTVSS,high polyreactivity
4,QVQLVESGGGLVQAVGSLRLSCAASGFILGGYALGWYRQAPGKERELVAAISFSTVATYYADSVKGRFTNSRDNAKNTVYLQMNSLKPEDTAVYYCAARRLGYYRKVKELDYWGQGTQVTVST,high polyreactivity
5,QVQLVESGGGVVQAGGRLRLSCAASGSIFTYYAMGWYRQAPGKERELVAAISYGGGSTYYADSVKGRFTISRDTAKNTVYLQMNSLKPEDTAVYYCNRVVGVKYGYWGQGTQVTVSS,high polyreactivity
6,QVQLVESGGGLVQAGGSLRLSCAASGPIFGFNAMGWYRQAPGKERELVARISSVGSTNYADSVKGRFTISRDNAKNTVYLQMNSLKPEDTAVYYCAAKRYYTQSSYYLALYDYWGQGTQVTVSS,low polyreactivity
7,QVQLVESGGGLVQAGGSLRLSCAASGSIFITYAMGWYRQAPGKERELVAAIRDSGDRTYYADSVKGRFTISRDNAKNTVYLQMNSLKPEDTAVYYCNARWQKPLKYDYWGQGTQVTVSS,low polyreactivity
8,QVQLVESGGGLVQAGGSLRLSCAASGSTFRGYAMGWYRQAPGKERELVAAISSRGARTHYADSVKGRFTISRDNAKNTVYLQMNSLKPEDTAVYYCNKRQVFVSTGEYELDYWGQGTQVTVSS,low polyreactivity
9,QVQLVESGGGLVQAGGSLRLSCAASGRIFLVYAMGWYRQAPGKERELVAAISWRGGRTYYADSVKGRFTISRDNAKNTVYLQMNSLKPEDTAVYYCAAASKYSQFEYDYWGQGTQVTVSS,high polyreactivity
10,QVQLVESGGGLVQAGGSLRLSCAASGRIFHWYAMGWYRQAPGKERELVATANTSYADSVKGRFTISRDNAKNTVYLQMNSLKPEDTALYYCATVGPRGRSLGDYWGQGTQVTVSS,low polyreactivity
11,QVQLVESGGGLVQAGGSLRLSCAASGIIFTKYFMGWYRQAPGKERELVAAINTDGGSTRYADSVKGRFTISRDNAKNTVYLQMNSLKPEDTAVYYCAAVSSRRPGYEYYYWGQGTQVTVSS,high polyreactivity
12,QLQLVESGGGLVQAGGSLRLSCAASGSIFYGYAKGWYRQAPGTERELVAAINTSGGSTFYADSVKGRFTISRDNANNTVYLQMNSLKPEDTAVYYCAAERYRYRSTDTMGYWGQGTQVTVSS,low polyreactivity
13,QVQLVESGGGLVQAGGSLRLSCAASGRIFFVNAMGWYRQAPGKERELVAAITYSGARTYYADSVKGRFTISRDHAKNTVYLQMNSLKPEDTAVYYCNADQRTASDQLEFDYWGQGTQVTVSS,low polyreactivity
14,QLQLVESGGGLVQAGGSLRLSCAASGFISWCNAMGWYRQAPGKERELVAAISWRDARTYYADSVKGRFTLSRDNAKNTVYLQMNSLKPEDTAVYYCNAVTAYVSRYLRGYRWFDYWGQGTQVTVSS,low polyreactivity
15,QVQLVESGGGLVQAGGSLRLICAASGSIFAYYAMGWYRQAPGKERELVGTNYADSVKGRFTISRDNAKNTVYLQMNSLKPEDTAVYYCAASSRRYLWGFDYWGQGTQVTVSS,low polyreactivity
16,QVQLVESGGGLVQAGGSLRLSCAASGRTFYGNAMGWYRQAPGKERELVAAISYRTGRTYYADSVKGRFTISRDNAKNTVYLQMNSLKPEDTAVYYCAADLHSRDDYWGQGTKVTVSS,high polyreactivity
17,QVQLVESGGGLVQAGGSLRLSCAASGSTFNIYAMGCYRQSPGKERELVAAIRSGGSTYYADSVKGRFTISRDNAKNTVYLQMNSLKPEDTAVYYCGAAVKRALDYWGQGTQVTVSS,high polyreactivity
18,QVQLVESGGGLVQPGGSLRLSCAASGSTLRRNAMGWYRQATRIERELVSAITGSRGSTYYADSVKGRFTISLDNAKNTVYLQMNCLKPEDTAVYYCAALYYYHLLPSRYYRFVYWGQGTQVTVSS,high polyreactivity
19,QVQLVESGGGLVQAGGSLRLSCAASGFIFYYNAMGWYRQAPGKERELVAAISSRGGSTYYADSVKGRFTISRDNAKNTVYLQMNSLKPEDTAVYYCNAKRYFRNHFRTGGMYYWGQGTQVTVSS,high polyreactivity
20,QVQLVESGGGLVQAGGSLRLSCAASGSTFDVYAMGWYRQAPGKERELVASISITDGSTYYADSVKGRFTISRDNAKNTVYLPMNSLKPEDTAVYYCNAQYGGSYVEYDYWGQGTQVTVSA,low polyreactivity
21,QVQHVESGGGLVQAGGSLRLTCAASGRIIAGYAMGWYRQATGKEREMVAAISSRGGSTYYADSVKGRFSISRDNAKNTVDLQMNSLKPVDTAVYYCAKRSWYSYVYGSGDYWGQGTQVTVSS,high polyreactivity
22,QVQLVESGGGLVQAGGSLRLSCAASGRIFNLYAMGWYRQAPGKERELVAGISWSGGDTTYADSVKGRFTISRDNAKNTVYLQMNSLKPEDTAVYYCNKRAYLDYGGRGYNYWGQGTRVTVSS,low polyreactivity

row,Sequence,polyreactivity (PSR sort gate)
1,QDQLVESGGGVVQAGGSLRLSCAASGRIVGSKASGVSIEAPRKESEFVAAISSCSRTYYADSVKGLFSISRDNAKNTVYLQMNSLKPEDTAVYYCAKRGYFYSHRHGYEYGGQGTQVTVSS,high polyreactivity
2,QVQLVESGGGIVQAGGSLRLSCAASGRTIPYHAMGWYRQAPGKERELDAAISYSGGRTYYADCVKGRFTISRDNAKNSVYLLMNSLKPDDTAVYYCNALGSGREDVYWGQGTQVTVSS,high polyreactivity
3,QVQLVESGGGLVQAGGSLRLSCAASGSIFSRYTMGWYRQAPGKERELVAAISGSTTRTYYADSVKGRFTISRDNAKNTVYLQMNSLKPEDTAVYYCAATRGRGGRDDYWGQGTQVTVSS,high polyreactivity
4,QVQLVESGGGLVQAGGSLRLSCAASGFTFRAYTMGWYRQAPGKERELVAAITYSGGRTYYADSVKGRFTISRDNAKNTVYLQMNSLKPEDTAVYYCATRGWALSEYYYWGQGTQVTVSS,high polyreactivity
5,QVQLVESGGGLVQAGGSLRLSCAASGRIFGYYARGWYRQAPGKEREFVAGITQRTDSTYYADSVKGRFTISRDNAKNTVYLQMNSLKPEDTAVYYCAARGYGGYHWGYYWGQGTQVTVSS,high polyreactivity
6,QVQLVESAGGLVQAAGSLRLSCDASGFTTYYNAMGWYRQAPGKERELVAAISSSGGSTNYADSVKGRFTISRDNAKNTVYLQMNSLKPEDTAVYYCAARLYGWYYGGYTRYDYWGQGTQVTVSS,high polyreactivity
7,QVLLVESGGGLVQEGGSLRLSCAASGIIFQFYAMGWYRQAPGKERELVAAISRSGGITHYADSVKGRFTISRDNAKNTVYLQMNSLKPEDTAVYYCAAVRQAYPRLDYWGQGTQVTVSS,high polyreactivity
8,QVQLVESGGGLVQAGGSLRLSCAASGRTFHVYARGWYRQAPGKERELVAAISGRTGSTYYADSVKGRFTISRDNAKNTVYLQMNSLKPEDTAVYYCAARRWSHGTGYGSWGQGTQVTVSS,high polyreactivity
9,QVQLVESGGGLVQAGGSLRLSCAASGRTLYRYAMGWYRQAPGKERELVAAISSGGRTYYADSVKGRFTISRDNAKNTVYLQMNSLKPEDTAVYYCAAERGWWRNDFDYWGQGTQVTVSS,high polyreactivity
10,QVQLVESGGGLVQAGGSLRLSCAASGFIFGYNAMGWYRQAPGKERELVASITYRGGRTYADSVKGRFTISRDNAKNTVYLQMNSLKPEDTAVYYCAAVRHVYVGGFDYWGQGTQVTVSS,high polyreactivity
11,QVQLVESGGGLVQAGGSLRLSCAASGSTFRLNAMGWYRQARGKEWEFVAAISSRGGSTYYADSVKGRFTISRDNAKNTDYLQMNSLKPEDTAVYYCKAVRSKLIENDYWGQGTQVTVSS,high polyreactivity
12,QVQLVESGGGLVQAGGRLRLSCAASGRTFGINAMGWYRQEPGKERELVASISSGGRTNYADSVKGRFTISRHNAKNTVYLQMNSLKPEDTAVYYCARSRLGRAYGRYDYWGQGTQVTVSS,low polyreactivity
13,QVQHVESGRGLVQAGGSLRLSCSASVRIFYNYAMGWYRQAPGKERELVAAISGSGGSTYYADSVKGRFTISRDNAKNSVYLQMNSQKPEDTAVYYCNKAVRRYPRFDYWGQGTQVTVSS,low polyreactivity
14,QVQLVESGGGLVQAGGSLRLSCAASGYTFSTYAMGWYRQAPGKERELFAAISYSGGRTRYADSVKGRFTISRDNAKNTVYLQMNSLKPEDTAVYYCAAKSGYGYGYWGQGTQVTVSS,high polyreactivity
15,QVQLVESGGGLVQAGGSLRLSCAASGRIFTWYGMGWYSQAPGKERELVARITQRGGTTYYADSVKGRFTISRDNAKNTVYLQINSLKPEDTAFYYCATQYTYTGRRYYSYVDGSRYYYWGQGTQVTVSS,high polyreactivity
16,QVQLVESGGGLVQAGGSLRLSCVASGRTFSRYAMGWYRQAPGKERELVAAISRRGGSTYYADSVKGRFTISRDNAKNTVYLQMNSLKPEDTAVYYCAAGYITWGSGNWVVTPYDYWGLGTQVTVSS,high polyreactivity
17,QVQLVESGGGLVKAGGSLRLSCCASGFTFTGYAMGWYRQAPGKEWELVAAITRGGGSTYYADSVKGRFTISRDNAKNTVYLQMNSLKREDTAVYYCAAQGSRLIRISSPYYGHDYWGQGTQVTVSS,low polyreactivity
18,QVQLVESGGGLVQAGGSLRLSCAASGSIFVLYAMGWYRQAPGKERELVAAITSGASTNYADSVKGRFTISRDNAKNTVYLQMNSLKPEDTAVYYCNTGSRLDRVDSWGQGTQVTVSS,low polyreactivity
19,QVQLVESGGGLVQAGGSLRLSCAASGGIFWFYAMGWYRQAPGKERELVASIRSSDGGTYYADSVKGRFTISRDNAKNTVYLQMNSLKPEDTAVYYCAADQTYERHWVYYWGQGTQVTVSS,low polyreactivity
20,QVQLVESGGGLVQAGGSLRLICAASGSTFDANAMGWYRQAPGKERELVAAITSNGGSTYYADSVKARFTISRDNAKNTVYLQMNSLKPEDTAVYYCATEQHTVQDYDFWGQGTQVTVSS,low polyreactivity
21,QVHLVESGGGLVQAGGSLRLSCAASGSIFSVYTMGWYRQATGKEREFVPSIDWSAGSTNYADSVKGRFTISRDNAKNTVYFQRNSLKPEDTADDYCARAGSSWDTLYKYYLEHDYWGQGSQVTVSS,low polyreactivity

# From the nanobody polyreactivity screen of Harvey et al. (2022)
